Patent US20140287419A1, “Compositions Having Dicamba Decarboxylase Activity and Methods of Use” (priority 2013, published 2014)
Numbering of substitutions follows the chain as printed.

B1: SEQ ID NO:19: 2,3-dihydroxybenzoic acid decarboxylase, putative, Talaromyces marneffei ATCC 18224 (protein, listed as Talaromyces marneffei)
chain: MATPIITLEEHYISSAIRDASETDHYAVFPSQIISKLNTLSTERLQDLDNGHVSLQVISHGPGAQPPYLCQAANDELASAISANPTRFAGFALLPIAEPQLAVQELERCITQHKFVGALIDNHTNGQFYDDQKFWPVFEKAQELDAPIYVHPSYPDEESGVAAHYRGNYDDRIAAALGAYGWGWHSDTALSILRLFAAGLFDTYPNIKIIIGHMGEMLPFQLERVIGIASRFGRSRGLREVWTQNIWVTTSGMFALAPLACLLQTMPIERVLYSVDYPFSANEKGFAFLEEIKKSGLIKEGEDWERFLYKNAQELLKVNV
B2: SEQ ID NO:22: possible o-pyrocatechuate decarboxylase, Staphylococcus epidermidis M23864: W1 (protein, listed as Staphylococcus epidermidis)
chain: MAKSINFEEHYVVDDIQKETMKYMSSDPNGVPMQTMLKGLEQKSGFTNADDITKHDERIKFMDEHDVEMQVLSYGNGAPSNLEGERAIELCQQANDTLAKYVNEHPDRFVGFATLPINEPQAAVEEFKRCIKELGFKGALIMGHPKNGFLDQDQYDDLFATAEALNVPIYLHPSPVQSDVYQAYYKGNYSDVTAATFACFGYGWHVDVGIHAIHLVLSGVFDRHPNLNMIIGHWGEFVPFFLERMDDILFADHLEHPISYYFKNNFYITPSGMLTKPQFDLVKAEVGVDRILYSADYPYVEPDKLGTFLDELDLTEEEKEKISYKNGAKLLGLEK
B3: SEQ ID NO:21: reversible 2,6-dihydroxybenzoic acid decarboxylase, Agrobacterium tumefaciens (protein, listed as Agrobacterium tumefaciens)
chain: MAQGKVALEEHFAIPETLQDSAGFVPGDYWKELQHRLLDIQDTRLKLMDAHGIETMILSLNAPAVQAIPDRKKAIEIARRANDVLAEECARRPDRFLAFAALPLQDPDAATQELQRCVNDLGFVGALVNGFSQEGDGQTPLYYDLPQYRPFWGEVEKLDVPFYLHPRNPLPQDSRIYDGHPWLLGPTWAFAQETAVHALRLMASGLFDAHPRLNIILGHMGEGLPYMMWRIDHRNAWVKLPPRYPAKRRFVDYFNENFHITTSGNFRTQTLIDAILEIGADRILFSTDWPFENIDHASDWFNATTIAEADRVKIGRTNARRLFKLDGR
B4: SEQ ID NO:26: o-pyrocatechuate decarboxylase, Variovorax paradoxus EPS (protein, listed as Variovorax paradoxus)
chain: MATHMAPMKNKIALEEHFAIDLTIADSQVYARPEVWQGLKSNLLDFEQQRLEKMDEWGTEFSILSLNSPAVQGIPDAKRAIEVAQRANDVLAEQVKRHPTRFGGFAALPMQDPEASARELERCVNQLGFHGFLVNGFSQVGDENIVVYYDDARFNDFWTAAAALKKPFYMHPRDPLLAREPIYDGAHWLTGPTWAFAMETAIHALRLMSSGMFDRHPALQMILGHFGEGIPFNIWRVDHILRKGRRGMPCDKEIGEYLRSNVHITTSGNFRTPTLLSTMLEVGSDRIMYSVDYPFEKHEDAARWFDTCEISENDRQKIGRDNARKLFGLK
B5: 34 (protein)
chain: MAQGKIGLEEHFAIPETLNDSAGFVPGDYWKELSRRLLDIQDDRLRQMDENGMEMMLLSLNAPAVQAVPDRKQACELAVRANDFLAEQVSRRPDRFQALAALPLQDPDFATVELTRCVNELGMRGALVNGFSQIDTPDNVVYYDAPQYASFWAAVEKLDVPFYLHPRNPIASWAQIYDGHPWLLGPTWAFGQETAVHALRLMASGLFDRHPALQIVLGHLGEGLPYSLWRIDNRNAWVKAPKTHPAKKTFRHYFQQNFHLTTSGNFHNQTLIDAILEIGADRILFSTDWPFENIDHAAKWFDSASISEADRTKIGRTNAMKLFKLVA
modifications: Cupriavidus necator
B6: 42 (protein)
chain: MAQGKIALEEHFAIPDTLQDSAGFVPGDYWKELSARLLDIHEQRLMQMDAYGIEKMILSLNAPAVQAIPDKAKALEISRRANDFLAEQCARNPDRFLGFAALPLQDPDAATAELQRCVKTLGFVGALVNGFSQEGDGVTPLYYDLPQYRGFWAEVEKLAVPFYLHPRNPLPQDSRIYAGHPWLMGPTWAFAQETAVHALRLVGSGLFDDHPALRIILGHMGEGLPYMMWRIDNRNAWVKVAPNYPAKRRIADYFNENFYITTSGNFRTQSLVDAMLEIGADRILFSTDWPFENIDHASDWFDTATISEADRLKIGRTNAATLFNLES
modifications: Agrobacterium radiobacter
B7: 35 (protein)
chain: MAFKASRKIALEEHFAIDATVQDSAGFVPPSYWAELKRRLLDIHDRRIDEMDRNGVELMVLSLNAPTVQAVPNIKDAYDLSRRANDFLAEQIVKRPERFKGFAALPMQSPDLAARELERCVKELNFVGALVNGFSQVEESGTALYYDLPQYRQFWSVVQALDVPFYLHPRNPLPAHAPIYEGHPWLLGPTWAFGQETAVHALRLMGSGLFDEYPELKIILGHMGEGLPYSMWRIDNRNAWVETQPNYPAKKRIAEYFHKNFWLTTSGNFRTQTLIDAMLEIGSDRILFSTDWPFENVDHAAQWFDDAAISENDRIKIARTNAARLFKLEP
modifications: Burkholderia sp
B8: 39 (protein, listed as Agrobacterium fabrum)
chain: MAQGKVALEEHFAIPETLQDSAGFVPGDCWTELQHRLLDIQDTRLKLMDAHGIETMILSLNAPAVQAIPDKTKAIEIARRANDALAEECAKRPDRFLAFAALPLQDPDAATQELRRCVNDLGFVGALVNGFSQEGDGQTPLYYDLPQYRPFWGEVEKLDVPFYLHPRNPLPQDSRIYDGHPWLLGPTWAFAQETAVHALRLMASGLFDEHPRLDIILGHMGEGLPYMMWRIDHRNAWVKLPPRYPAKRRFVDYFNENFHITTSGNFRTQTLIDAILEIGADRILFSTDWPFENIDHASDWFHATSIAEADRVKIGRTNARRLFKLDGR
B9: 40 (protein, listed as Rhodococcus jostii)
chain: MAQGKIALEEHFAIPETLNDSAGFVPGTYWDELQARLLDIQDVRLKLMDEHNIETMILSLNAPAVQAIPERERAIDIARRANDVLAEECAKRPDRFRGFAALPLQDPDAAAEELRRCVTELGFVGALVNGFSQSATVDGGSTPLYYDLPRYRPFWAEVERLDVPFYLHPRNPLNQDARIYEGHPWLLGPTWAFAQETAVHALRLMASGLFDEHPGLRIVLGHMGEGIPAMLWRIDHRNAWVDVPPAYPAKRRMVDYFTENFFVTTSGNFRTQTLIDLLLELGSERVMFSTDWPFENINHAAEWFDAASISEADRLKIGRTNAATLFKLDR
B10: 36 (protein, listed as Agrobacterium sp.)
chain: B8 chain with C29Y, D94N, R115Q, T139I, D214N
B11: 3 (protein, listed as Lactobacillus plantarum)
chain: MAKLITVEEHFESAAVTAAMRQAVGNAVLPAVSPALRQYMRDNLPSPAIMQDTQHERLAFMAQYGIDMQVLSYGNSSPQNLSPEQAVPLSQLANDELAKAVVAHPDRYAGLAVLPVGDPQAAVAELNRAVTTLGLRGVLLKGNYQNKFFDEPFFLPIFEAAAALDVPVYFHPSFIPQAVTSHYFESNQWSDVVTGILSSAGYGWHMDVGIQVIRMIASGIFDKLPGLKLISGHWGELVPLFLERLDDELTTYTDLQYPFSTYYRHNVYVTPSGILSAPQLQFMLAEMGADHLMYSIDYPYKQPETSGSFLDIADLTDEQRAQIAFGTATTLFKL
B12: 37 (protein, listed as Burkholderia gladioli)
chain: MATFSNVKKIALEEHFAIAETIEDSAGFVPPDDWVELRGRLLDIQERRLAEMDRAGIELMVLSLNAPAVQAIRDPRQAVELARRANDYLAEQVARRPDRFRAFAALPMQAPEQAIREAERCVRELGFVGALVNGFSEAEDGAELYYDLPRYRPFWAALEALEVPFYLHPRNPLAGRAPIYDGHSWLMGPTWAFGQETAVHALRLMGSGLFDAHPRLQIILGHMGEGLPYSMWRVDNRNAWVSAKPNYPAEKPIAEYFRNNFWLTTSGNFRTQTLIDAMLEIGSDRILFSADWPFENMDHAADWFDHASISENDRIKIGRGNAERLLKLGR
B13: 38 (protein, listed as Variovorax paradoxus)
chain: MAQGKIGLEEHFAIPQTLQDSAGFVPGVYWKELSSRLLDIHDGRLRQMDEHGMEMMILSLNAPAVQAVADPVKAYELAVRANDFLAEQVAKRPDRFQAFAALPMQDPEKATQELERCMSVLGFRGALVNGFSQVGTPDNVAYYDAPQYAPFWAAAERLDAPFYLHPRNPIASWAQIYEGHPWLLGPTWAFAQETAVHALRLMASGLFDRHPGLKIILGHLGEGLPYNMWRVDHRNAWVKAPKGYPAKRKLCEYFQENFYLTTSGNFRTQTLIDAMLEVGSDRILFSTDWPFENIDHASNWFNDTSISEADRKKIGRTNAMSLFKLA
B14: 33 (protein, listed as Rhizobium leguminosarum)
chain: MAQGKIALEEHFAIPETLQDSAGFVPGDYWKELSARLLDIQEKRLRLMDAHGIEKMILSLNAPAVQAIPDRAKALEISRRANDFLAEQCVKNPNRFLGFAALPLQDPDAATQELQRCVTTMGFVGALVNGFSQEGDGTTPLYYDLPQYRSFWAEVEKLNVPFYLHPRNPLPQDSRIYAGHSWLMGPTWAFAQETAVHALRLMGSGLFDEHPALRIIVGHMGEGLPYMMWRIDNRNAWVKVEKSYPAKRPIADYFNENFYITTSGNFRTQSLIDAMLEIGADRILFSADWPFENIDHAANWFDSATISEADRLKIGRTNAVSLFKLDR

Experiment: 14C assay with IPTG-induced recombinant E. coli cells (14CO2 capture from [14C]-carboxyl-labeled dicamba)
Conditions: E. coli cell assay, 108 sequences tested
For B1, the “decarboxylation activity of dicamba” value was “showed decarboxylation activity of dicamba”. With B2 the “decarboxylation activity of dicamba” value was “showed decarboxylation activity of dicamba”. In the case of B3, the “decarboxylation activity of dicamba” value is reported as “showed decarboxylation activity of dicamba”. In the case of B4, the “decarboxylation activity of dicamba” value is reported as “showed decarboxylation activity of dicamba”.

Same assay, conditions: IPTG-induced recombinant E. coli cells; [14C]-carboxyl-labeled dicamba; 14CO2 capture
For B5, the “Dicamba Decarboxylase Activity” value was “High”. For B6, the “Dicamba Decarboxylase Activity” value was “Low”. With B7 the “Dicamba Decarboxylase Activity” value was “High”. With B8 the “Dicamba Decarboxylase Activity” value was “No”. For B9, the “Dicamba Decarboxylase Activity” value was “Low”. For B10, the “Dicamba Decarboxylase Activity” value was “High”. For B11, the “Dicamba Decarboxylase Activity” value was “Low”. For B12, the “Dicamba Decarboxylase Activity” value was “Low”. For B13, the “Dicamba Decarboxylase Activity” value was “Low”. With B14 the “Dicamba Decarboxylase Activity” value was “High”.

Same assay, conditions: dicamba decarboxylation activity of the protein of the given SEQ ID NO
With B5 the “Enzymatic Detection level” value was “High”. With B6 the “Enzymatic Detection level” value was “Low”. For B7, the “Enzymatic Detection level” value was “High”. With B8 the “Enzymatic Detection level” value was “No”. For B9, the “Enzymatic Detection level” value was “Low”. With B10 the “Enzymatic Detection level” value was “High”. In the case of B11, the “Enzymatic Detection level” value is reported as “Low”. In the case of B12, the “Enzymatic Detection level” value is reported as “Low”. For B13, the “Enzymatic Detection level” value was “Low”. With B14 the “Enzymatic Detection level” value was “High”.
